Reference: patent publication US7041790B2, “Fibrinogen binding moieties” (Dyax Corp., priority 2002, dated 2006)
Bridges are numbered along the chain shown (N, C = ends).

Biological target: T1, purified human fibrinogen (Homo sapiens, UniProt P02671+P02675+P02679)
T1 construct: purchased Calbiochem 341576
T1 sequence (P02671 20-629 limits assumed): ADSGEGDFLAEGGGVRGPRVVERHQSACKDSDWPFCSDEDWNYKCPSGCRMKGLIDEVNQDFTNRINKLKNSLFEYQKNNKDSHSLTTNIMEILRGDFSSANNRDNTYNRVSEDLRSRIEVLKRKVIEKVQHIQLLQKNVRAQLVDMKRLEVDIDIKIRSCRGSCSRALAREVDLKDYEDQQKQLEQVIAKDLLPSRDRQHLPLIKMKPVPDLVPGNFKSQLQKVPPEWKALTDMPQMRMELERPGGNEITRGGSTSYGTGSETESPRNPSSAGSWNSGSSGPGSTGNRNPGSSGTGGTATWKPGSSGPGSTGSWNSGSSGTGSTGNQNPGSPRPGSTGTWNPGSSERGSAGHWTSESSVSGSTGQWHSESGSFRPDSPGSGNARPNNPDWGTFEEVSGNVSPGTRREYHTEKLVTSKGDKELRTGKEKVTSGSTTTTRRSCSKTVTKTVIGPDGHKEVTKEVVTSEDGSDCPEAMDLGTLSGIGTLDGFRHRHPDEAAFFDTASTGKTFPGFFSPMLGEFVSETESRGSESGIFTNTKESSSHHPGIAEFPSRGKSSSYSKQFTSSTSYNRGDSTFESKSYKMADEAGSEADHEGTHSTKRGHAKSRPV
T1 sequence (P02675 31-491): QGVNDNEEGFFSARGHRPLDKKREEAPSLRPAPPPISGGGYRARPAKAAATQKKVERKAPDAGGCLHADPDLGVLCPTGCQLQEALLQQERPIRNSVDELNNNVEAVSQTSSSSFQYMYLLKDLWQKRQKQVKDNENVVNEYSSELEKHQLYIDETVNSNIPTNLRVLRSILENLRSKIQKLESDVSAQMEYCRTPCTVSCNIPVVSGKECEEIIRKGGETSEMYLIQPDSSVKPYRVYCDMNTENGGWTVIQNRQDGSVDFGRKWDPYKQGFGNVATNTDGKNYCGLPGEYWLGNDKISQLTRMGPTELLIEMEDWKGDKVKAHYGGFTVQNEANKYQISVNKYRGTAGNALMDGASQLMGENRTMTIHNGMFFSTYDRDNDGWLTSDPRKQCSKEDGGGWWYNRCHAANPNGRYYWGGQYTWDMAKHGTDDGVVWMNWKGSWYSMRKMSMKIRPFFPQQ
T1 sequence (P02679 27-433 limits assumed): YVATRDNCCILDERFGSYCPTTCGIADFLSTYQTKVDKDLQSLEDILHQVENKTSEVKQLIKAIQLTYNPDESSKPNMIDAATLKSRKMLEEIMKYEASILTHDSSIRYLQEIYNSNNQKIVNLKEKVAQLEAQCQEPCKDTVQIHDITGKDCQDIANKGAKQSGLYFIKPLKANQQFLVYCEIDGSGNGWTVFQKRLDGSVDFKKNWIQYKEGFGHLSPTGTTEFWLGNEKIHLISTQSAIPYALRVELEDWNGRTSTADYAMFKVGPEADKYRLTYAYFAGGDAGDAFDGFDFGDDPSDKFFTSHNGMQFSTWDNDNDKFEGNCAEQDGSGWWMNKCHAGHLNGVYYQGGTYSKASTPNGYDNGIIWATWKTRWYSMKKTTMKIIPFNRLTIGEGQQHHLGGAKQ
Assay: Purified fibrinogen binding capacity of fibrinogen binding columns
Conditions: purified fibrinogen 0.5 mg/ml in PBS injected continuously, eluted with glycine 0.1M pH 2.5
Experimental: FIG. 1 is a chromatogram illustrating the purified fibrinogen binding capacity of a fibrinogen binding column utilizing the fibrinogen binding peptide of SEQ ID NO:48 and having a ligand density of 2.0 μM/ml resin. Purified fibrinogen (0.5 mg/ml in PBS) was injected continuously onto the column until the A280 reading reached a plateau. The column was then washed with PBS until a baseline reading was obtained and then eluted with glycine buffer (0.1M, pH 2.5). The eluted fraction (major peak) was collected and analyzed by HPLC Size Exclusion Chromatography (SEC). The capacity of the column was calculated to be 2.076 mg fibrinogen/ml resin.
FIG. 2 is a chromatogram illustrating the purified fibrinogen binding capacity of a fibrinogen binding column utilizing the fibrinogen binding peptide of SEQ ID NO:48 and having a ligand density of 4.0 μM/ml resin. Purified fibrinogen (0.5 mg/ml in PBS) was injected continuously onto the column until the A280 reading reached a plateau. The column was then washed with PBS until a baseline reading was obtained and then eluted with glycine buffer (0.1M, pH 2.5). The eluted fraction (major peak) was collected and analyzed by HPLC Size Exclusion Chromatography (SEC). The capacity of the column was calculated to be 4.1 mg fibrinogen/ml resin. […]

fibrinogen binding capacity of the column (ligand density 2.0 μM/ml resin): 2.076 mg fibrinogen/ml resin
fibrinogen binding capacity of the column (ligand density 4.0 μM/ml resin): 4.1 mg fibrinogen/ml resin
Substance: SEQ ID NO:48: fibrinogen binding polypeptide containing the cyclic core peptide of SEQ ID NO: 43 (Ac-AEGTGSLYLCNSYPMHPYCNPGK-NH2; disulfide 10-19 (inferred))
